# Measurements taken from patent publication US20160317644A1.
# Like-named read-outs stand apart in the source and are kept apart here.
# Key:
# [1] = biological target: transmembrane proteins of the replication complex; assay: cell-based or functional assay
# [2] = biological target: transmembrane proteins of the replication complex; assay: cell-based or functional assay; remark: listed apart in the source
Molecule,Plaque size [1] [mm],Titer (PFU/mL) [1] [PFU/mL],Plaque size [2] [mm],Titer (PFU/mL) [2] [PFU/mL]
DEN2 NS1 F160A (from UniProt P29990 776-1127),1,6000,,
"Dengue virus type 2 (DEN2; 16681) nonstructural protein 1 (NS1), recombinant, full-length, glycosylated, P29990 776-1127 (protein) DSGCVVSWKNKELKCGSGIFITDNVHTWTEQYKFQPESPSKLASAIQKAHEEGICGIRSVTRLENLMWKQITPELNHILSENEVKLTIMTGDIKGIMQAGKRSLRPQPTELKYSWKTWGKAKMLSTESHNQTFLIDGPETAECPNTNRAWNSLEVEDYGFGVFTTNIWLKLKEKQDVFCDSKLMSAAIKDNRAVHADMGYWIESALNDTWKIEKASFIEVKNCHWPKSHTLWSNGVLESEMIIPKNLAGPVSQHNYRPGYHTQITGPWHLGKLEMDFDFCDGTTVVVTEDCGNRGPSLRTTTASGKLITEWCCRSCTLPPLRYRGEDGCWYGMEIRPLKEKEENLVNSLVTA",,,3,4.8e+06
